From patent publication US20230399393A1, “METHODS TO EXTEND HEALTH-SPAN AND TREAT AGE-RELATED DISEASES” (National University of Singapore, priority 2020, published 2023)

What was measured:
Type in all cases: in vivo, mouse
[1] = tested on: C57Bl/6J mice; experiment: Body-composition assessment via echo MRI; details: baseline age 55 weeks vs 108-109 weeks, vs IgG control
Description: From age 55 weeks (human equivalent of ˜45 years old (i.e. middle age)) to age 110 weeks (human equivalent of ˜75 years old), mice were administered with 40 mg/kg of either X203 or isotype-matched control IgG via intra-peritoneal injection every 3 weeks.
Mice also underwent body-composition assessment via echo MRI both at baseline (age 55 weeks) and at 108-109 weeks. This enabled calculation of the change in body fat mass and lean (muscle) mass in the X203 and IgG control treatment groups. Gastrocnemius and soleus muscles were also harvested from the mice at age 110 weeks and their weights were recorded. Data were analysed by 2-way ANOVA.
End-point total body fat and lean mass measurements were performed 2 days prior to sacrifice by EchoMRI analysis using 4in1 Body Composition Analyzer for Live Small Animal.

[2] = tested on: C57Bl/6J mice; experiment: Analysis of organ fibrosis (hydroxyproline assay, Masson's trichrome); details: at 110 weeks; heart, lung, kidney, skeletal muscle; vs IgG control antibody
Description: C57Bl/6J mice are randomised to receive either X203 or IgG control antibody at a dose of 40m/kg via IP injection every 3 weeks from age 55 weeks to age 110 weeks.
At 110 weeks, global tissue collagen content is evaluated in the heart, lung, kidney and skeletal muscle tissues by hydroxyproline assay. Tissue sections from these tissues are also subjected to Masson's trichrome staining and analysed by light microscopy (blinded to treatment group).

[3] = tested on: C57Bl/6J mice; experiment: Ageing pathways in tissues of old mice receiving X203, western blot and densitometry; details: 110-week old mice
Description: The same results are observed in the gastrocnemii (FIGS. 45 and 46), solei (FIGS. 47 and 48) and abdominal fat (FIGS. 49 and 50) of old mice treated with X203.
Male and female C57Bl/6J mice aged 46 weeks were purchased from the Jackson Laboratory. Mice were randomised on a 1:1 basis to receive either 40 mg/kg of X203 or an isotype control IgG antibody (11E10), every 3 weeks (IP), starting from 55 weeks of age. Mice were sacrificed at 110 weeks of age for blood and tissues collection. 12 weeks old male and female C57Bl/6J mice that were used as control were purchased from Invivos (Singapore).
Western blots were carried out on total protein extracts from primary human cardiac fibroblasts (HCFs), hepatic stellate cells (HSCs), hepatocytes, livers, gastrocnemii, solei, and abdominal fats. Cell or tissue lysates were homogenized in RIPA Lysis and Extraction Buffer (89901, Thermo Scientific) containing protease and phosphatase inhibitors (Roche). Protein lysates were separated by SDS-PAGE, transferred to PVDF membranes, blocked for 1 h with 3% BSA, and incubated overnight with either phospho-ACC (11818, CST), ACC (3676, CST), phospho-AMPK (2535, CST), AMPK (5832, CST), phospho-ERK1/2 (4370, CST), ERK1/2 (4695, CST), GAPDH (2118, CST), phospho-LKB1 S428 (3482, CST), phospho-LKB1 (S325), LKB1 (3047, CST), (phospho-mTOR (2971, CST), mTOR (2972, CST), p16 (ab232402, Abcam), p21 (64016, CST), phospho-p70S6K (9205, CST), p70S6K (2708, CST), phospho-S6 ribosomal protein (4858, CST), or S6 ribosomal protein (2217, CST). All primary antibodies are diluted 1:1000 in 1% BSA. Protein bands were visualized using the ECL detection system (Pierce) with anti-rabbit HRP (1:2000 in 3% BSA, 7074, CST).

[4] = tested on: C57BL6/J mice; experiment: Inflammatory markers in liver, kidney and muscle of old mice (QPCR); details: 40 mg/kg once every three weeks, vs IgG
Description: (§1) FIG. 52. A neutralizing IL-11 antibody reduces multiple markers of inflammation in kidneys of old mice. Wild-type C57BL6/J mice were treated with an intra-peritoneal injection of anti-IL11 (X203; 40 mg/kg, once every three weeks) or an isotype IgG control (11E10, 40 mg/kg, once every three weeks) from 55 weeks of age until 110 weeks of age. 110 week-old mice were sacrificed and organs harvested, snap frozen and RNA extracted using standard procedures. Samples were analyzed by quantitative RT-PCR (QPCR) using primers specific for Ccl2, Ccl5, Tnfα, Il1β, Il11, Il6 or Gapdh.
as §1, with “53.” for “52.”, “livers” for “kidneys”
as §1, with “54.” for “52.”, “skeletal muscle (soleus)” for “kidneys”, “sacrificed,” for “sacrificed”, “Gapdh. […]” for “Gapdh.”
Total RNA was extracted from AML12 or snap-frozen tissues using Trizol (Invitrogen) and RNeasy Mini Kit (Qiagen). […] Expression data were normalized to GAPDH mRNA expression and fold change was calculated using 2^−ΔΔct method.

[5] = compared with the liver results

B1: X203: mouse anti-mouse IL-11 IgG antagonist antibody; VH SEQ ID NO:22, VL SEQ ID NO:23 (antibody, V domains shown)
VH: EVQLQQSGPELVKPGASVKIPCKASGYTFTDYNMDWVKQSHGKSLEWIGDINPHNGGPIYNQKFTGKATLTVDKSSSTAYMELRSLTSEDTAVYYCARGELGHWYFDVWGTGTTVTVSS
VL: DIVLTQSPASLAVSLGQRATISCRASKSVSTSGYSYIHWYQQKPGQPPKLLIYLASNLDSGVPARFSGSGSGTDFTLNIHPVEEEDAATYYCQHSRDLPPTFGGGTKLEIK
[1]
  fat mass gained (change in body fat mass): significantly less
  lean mass: significantly greater
[2]
  fibrosis in the tissues analysed: less
[3]; [5]
  ERK/LKB1/mTORC1 activity, AMPK activity, p16 and p21 expression in gastrocnemii: same results
  ERK/LKB1/mTORC1 activity, AMPK activity, p16 and p21 expression in solei: same results
[3]; vs IgG control
  AMPK activity in livers: more
  ERK/LKB1/mTORC1 activity in livers: less
  expression of key senescence markers (p16 and p21) in livers: less
[4]
  markers of inflammation (CCL2, CCL5, TNFa, IL-1 b, IL-11 and IL-6) in kidney: reduces
  markers of inflammation (CCL2, CCL5, TNFa, IL-1 b, IL-11 and IL-6) in liver: reduces
  markers of inflammation (CCL2, CCL5, TNFa, IL-1 b, IL-11 and IL-6) in skeletal muscle: reduces
